From US20180022780A1 (Bayer, published 2018)
Bridge positions count the residues as written; N and C are the ends. Square brackets hold non-standard residues; d marks the D form. Ends that are not written are not given here. Orn = NCCC[C@H](N)C(=O)O; Dab = NCC[C@H](N)C(=O)O; Dap = NC[C@H](N)C(=O)O

B1: [G^14, (Dab^16, D^21)lac]ADM(14-52) (peptide)
peptide: GG[Dab]RFGTDTVQKLAHQIYQFTDKDKDNVAPRSKISPQGY-NH2
modifications: lactam 3-8; N-terminus assumed
SMILES: CC[C@H](C)[C@H](NC(=O)[C@H](CCC(N)=O)NC(=O)[C@H](Cc1c[nH]cn1)NC(=O)[C@H](C)NC(=O)[C@H](CC(C)C)NC(=O)[C@H](CCCCN)NC(=O)[C@H](CCC(N)=O)NC(=O)[C@@H](NC(=O)[C@@H](NC(=O)[C@@H]1CC(=O)NCC[C@H](NC(=O)CNC(=O)CN)C(=O)N[C@@H](CCCNC(=N)N)C(=O)N[C@@H](Cc2ccccc2)C(=O)NCC(=O)N[C@@H]([C@@H](C)O)C(=O)N1)[C@@H](C)O)C(C)C)C(=O)N[C@@H](Cc1ccc(O)cc1)C(=O)N[C@@H](CCC(N)=O)C(=O)N[C@@H](Cc1ccccc1)C(=O)N[C@H](C(=O)N[C@@H](CC(=O)O)C(=O)N[C@@H](CCCCN)C(=O)N[C@@H](CC(=O)O)C(=O)N[C@@H](CCCCN)C(=O)N[C@@H](CC(=O)O)C(=O)N[C@@H](CC(N)=O)C(=O)N[C@H](C(=O)N[C@@H](C)C(=O)N1CCC[C@H]1C(=O)N[C@@H](CCCNC(=N)N)C(=O)N[C@@H](CO)C(=O)N[C@@H](CCCCN)C(=O)N[C@H](C(=O)N[C@@H](CO)C(=O)N1CCC[C@H]1C(=O)N[C@@H](CCC(N)=O)C(=O)NCC(=O)N[C@@H](Cc1ccc(O)cc1)C(N)=O)[C@@H](C)CC)C(C)C)[C@@H](C)O
B2: [G^14, (E^16, Dpr^21)lac]ADM(14-52) (peptide)
peptide: GGERFGT[Dap]TVQKLAHQIYQFTDKDKDNVAPRSKISPQGY-NH2
modifications: lactam 3-8
B3: [G^14, (Dpr^16, E^21)lac]ADM(14-52) (peptide)
peptide: GG[Dap]RFGTETVQKLAHQIYQFTDKDKDNVAPRSKISPQGY-NH2
modifications: lactam 3-8; N-terminus assumed
SMILES: CC[C@H](C)[C@H](NC(=O)[C@H](CCC(N)=O)NC(=O)[C@H](Cc1c[nH]cn1)NC(=O)[C@H](C)NC(=O)[C@H](CC(C)C)NC(=O)[C@H](CCCCN)NC(=O)[C@H](CCC(N)=O)NC(=O)[C@@H](NC(=O)[C@@H](NC(=O)[C@@H]1CCC(=O)NC[C@H](NC(=O)CNC(=O)CN)C(=O)N[C@@H](CCCNC(=N)N)C(=O)N[C@@H](Cc2ccccc2)C(=O)NCC(=O)N[C@@H]([C@@H](C)O)C(=O)N1)[C@@H](C)O)C(C)C)C(=O)N[C@@H](Cc1ccc(O)cc1)C(=O)N[C@@H](CCC(N)=O)C(=O)N[C@@H](Cc1ccccc1)C(=O)N[C@H](C(=O)N[C@@H](CC(=O)O)C(=O)N[C@@H](CCCCN)C(=O)N[C@@H](CC(=O)O)C(=O)N[C@@H](CCCCN)C(=O)N[C@@H](CC(=O)O)C(=O)N[C@@H](CC(N)=O)C(=O)N[C@H](C(=O)N[C@@H](C)C(=O)N1CCC[C@H]1C(=O)N[C@@H](CCCNC(=N)N)C(=O)N[C@@H](CO)C(=O)N[C@@H](CCCCN)C(=O)N[C@H](C(=O)N[C@@H](CO)C(=O)N1CCC[C@H]1C(=O)N[C@@H](CCC(N)=O)C(=O)NCC(=O)N[C@@H](Cc1ccc(O)cc1)C(N)=O)[C@@H](C)CC)C(C)C)[C@@H](C)O
B4: [G^14, (D^16, Orn^21)lac]ADM(14-52) (peptide)
peptide: GGDRFGT[Orn]TVQKLAHQIYQFTDKDKDNVAPRSKISPQGY-NH2
modifications: lactam 3-8
B5: [G^14, (Orn^16, D^21)lac]ADM(14-52) (peptide)
peptide: GG[Orn]RFGTDTVQKLAHQIYQFTDKDKDNVAPRSKISPQGY-NH2
modifications: lactam 3-8; N-terminus assumed
SMILES: CC[C@H](C)[C@H](NC(=O)[C@H](CCC(N)=O)NC(=O)[C@H](Cc1c[nH]cn1)NC(=O)[C@H](C)NC(=O)[C@H](CC(C)C)NC(=O)[C@H](CCCCN)NC(=O)[C@H](CCC(N)=O)NC(=O)[C@@H](NC(=O)[C@@H](NC(=O)[C@@H]1CC(=O)NCCC[C@H](NC(=O)CNC(=O)CN)C(=O)N[C@@H](CCCNC(=N)N)C(=O)N[C@@H](Cc2ccccc2)C(=O)NCC(=O)N[C@@H]([C@@H](C)O)C(=O)N1)[C@@H](C)O)C(C)C)C(=O)N[C@@H](Cc1ccc(O)cc1)C(=O)N[C@@H](CCC(N)=O)C(=O)N[C@@H](Cc1ccccc1)C(=O)N[C@H](C(=O)N[C@@H](CC(=O)O)C(=O)N[C@@H](CCCCN)C(=O)N[C@@H](CC(=O)O)C(=O)N[C@@H](CCCCN)C(=O)N[C@@H](CC(=O)O)C(=O)N[C@@H](CC(N)=O)C(=O)N[C@H](C(=O)N[C@@H](C)C(=O)N1CCC[C@H]1C(=O)N[C@@H](CCCNC(=N)N)C(=O)N[C@@H](CO)C(=O)N[C@@H](CCCCN)C(=O)N[C@H](C(=O)N[C@@H](CO)C(=O)N1CCC[C@H]1C(=O)N[C@@H](CCC(N)=O)C(=O)NCC(=O)N[C@@H](Cc1ccc(O)cc1)C(N)=O)[C@@H](C)CC)C(C)C)[C@@H](C)O

Legend:
[1] = target: human adrenomedullin-receptor (human, UniProt Q16602 23-461); test: cell-based or functional assay
Chain of human adrenomedullin-receptor (Q16602 23-461): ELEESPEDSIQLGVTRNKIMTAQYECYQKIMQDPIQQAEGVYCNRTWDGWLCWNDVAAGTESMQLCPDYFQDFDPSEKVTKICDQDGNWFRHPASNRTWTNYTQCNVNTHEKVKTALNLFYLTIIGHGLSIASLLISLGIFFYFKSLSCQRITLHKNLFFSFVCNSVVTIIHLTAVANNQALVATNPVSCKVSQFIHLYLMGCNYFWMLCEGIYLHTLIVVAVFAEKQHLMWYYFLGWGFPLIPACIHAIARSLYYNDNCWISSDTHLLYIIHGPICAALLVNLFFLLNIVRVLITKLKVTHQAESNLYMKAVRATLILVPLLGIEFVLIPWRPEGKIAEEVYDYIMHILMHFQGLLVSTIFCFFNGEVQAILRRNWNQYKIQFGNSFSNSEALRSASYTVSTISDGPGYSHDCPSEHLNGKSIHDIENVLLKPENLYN

[2] = target: CLR fused to EYFP with RAMP2 fused to ECFP; test: cell-based or functional assay
Chain of CLR fused to EYFP with RAMP2 fused to ECFP (Q16602 whole entry, chain 1 of 2, the tested form may be a part): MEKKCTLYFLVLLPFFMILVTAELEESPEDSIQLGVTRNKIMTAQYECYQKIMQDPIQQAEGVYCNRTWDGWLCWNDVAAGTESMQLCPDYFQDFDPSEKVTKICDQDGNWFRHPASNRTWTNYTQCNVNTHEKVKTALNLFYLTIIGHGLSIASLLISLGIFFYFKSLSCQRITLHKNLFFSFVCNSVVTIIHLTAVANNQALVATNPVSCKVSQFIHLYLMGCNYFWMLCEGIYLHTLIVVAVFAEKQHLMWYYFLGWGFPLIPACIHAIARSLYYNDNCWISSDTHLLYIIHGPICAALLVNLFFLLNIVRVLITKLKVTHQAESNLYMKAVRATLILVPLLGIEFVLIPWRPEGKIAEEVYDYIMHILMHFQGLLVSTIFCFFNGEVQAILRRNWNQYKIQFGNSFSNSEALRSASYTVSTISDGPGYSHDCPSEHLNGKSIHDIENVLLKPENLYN
Chain of CLR fused to EYFP with RAMP2 fused to ECFP (O60895 whole entry, chain 2 of 2, further chain, the tested form may be a part): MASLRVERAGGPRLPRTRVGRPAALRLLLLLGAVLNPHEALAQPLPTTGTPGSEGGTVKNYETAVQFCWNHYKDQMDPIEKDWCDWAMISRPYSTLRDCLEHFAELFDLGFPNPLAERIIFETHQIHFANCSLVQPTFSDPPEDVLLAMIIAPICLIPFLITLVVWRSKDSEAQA

| Binder | EC50 [nM], aequorin luminescence of CHO adrenomedullin-receptor reporter cells [1] [nM] | EC50 [nM], cAMP assay (CRE-luciferase luminescence, HEK293 cells) [2] [nM] |
| --- | --- | --- |
| B1 | > 1000 | 112 |
| B2 | > 1000 | 303 |
| B3 | 5.26 | 2.9 |
| B4 | 17.3 | 20 |
| B5 | > 1000 | > 1000 |
